Article PMC10619557, “Crystal Structures of 6-Phosphogluconate Dehydrogenase from Corynebacterium glutamicum” (Journal of Microbiology and Biotechnology, 2023)

What was measured:
[1] = substrate: NC(=O)c1ccc[n+]([C@@H]2O[C@H](COP(=O)(O)OP(=O)(O)OC[C@H]3O[C@@H](n4cnc5c(N)ncnc54)[C@H](OP(=O)(O)O)[C@@H]3O)[C@@H](O)[C@H]2O)c1; assay: purified protein; type: biochemical, Corynebacterium glutamicum; conditions: NADP 0.01-2 mM, 5 mM 6PG, 40 mM Tris-HCl pH 8.0, 20 °C, varied: cofactor
[2] = substrate: O=C(O)[C@H](O)[C@@H](O)[C@H](O)[C@H](O)COP(=O)(O)O; assay: purified protein; type: biochemical, Corynebacterium glutamicum; conditions: 6PG 0.1-5 mM, 2 mM NADP, 40 mM Tris-HCl pH 8.0, 20 °C

B1: Cg6PGD (Corynebacterium glutamicum ATCC 13032) (protein)
chain: MTNGDNLAQIGVVGLAVMGSNLARNFARNGNTVAVYNRSTDKTDKLIADHGSEGNFIPSATVEEFVASLEKPRRAIIMVQAGNATDAVINQLADAMDEGDIIIDGGNALYTDTIRREKEISARGLHFVGAGISGGEEGALNGPSIMPGGPAKSYESLGPLLESIAANVDGTPCVTHIGPDGAGHFVKMVHNGIEYADMQVIGEAYHLLRYAAGMQPAEIAEVFKEWNAGDLDSYLIEITAEVLSQVDAETGKPLIDVIVDAAGQKGTGRWTVKAALDLGIATTGIGEAVFARALSGATSQRAAAQGNLPAGVLTDLEALGVDKAQFVEDVRRALYASKLVAYAQGFDEIKAGSDENNWDVDPRDLATIWRGGCIIRAKFLNRIVEAYDANAELESLLLDPYFKSELGDLIDSWRRVIVTATQLGLPIPVFASSLSYYDSLRAERLPAALIQGQRDFFGAHTYKRIDKDGSFHTEWSGDRSEVEA
notes: full length, 484 residues (Met1-Ala484), C-terminal His6 (pET-30a), E. coli BL21(DE3)-T1R
**Q.** B1 was tested. Which Km [1] did it give?
**A.** The Km was 162.8 ± 9.5 µM.

**Q.** What about the kcat [1] of the same protein?
**A.** Its kcat is 17.1 ± 0.282 s⁻¹.

**Q.** What about the kcat/Km [1] of the same protein?
**A.** The kcat/Km was 105000 M⁻¹ s⁻¹.

**Q.** And the Km [2]?
**A.** Its Km is 340.8 ± 30 µM.

**Q.** What about the kcat [2] of the same protein?
**A.** Its kcat is 19 ± 0.452 s⁻¹.

**Q.** What about the kcat/Km [2] of the same protein?
**A.** Its kcat/Km is 55700 M⁻¹ s⁻¹.
